Residue numbers refer to the chain shown, from its start.

For experiment [1], the target named is T1, human Siglec-8 (full-length, on transfected CHO or 293 cells, or native on human eosinophils) (human, UniProt Q9NYZ4 17-499). The experiment in a line: flow cytometry on 293 cells transiently transfected with full-length human Siglec-8; A647 anti-human Fc-gamma secondary; median fluorescence, nonlinear fit; table under the graph (Kd column without unit, concentration axis nM Ab). The method, then:
(§1) The binding of the lmG2 and humanized versions (further including Siglec8 hzG2v14), formatted as monomeric VHH-hIgG1 fusions proteins using a non-dimerizing human IgG1 Fe variant region lacking a hinge Fe NNT, was assessed by flow cytometry using 293 cells that had been transiently transfected with full-length human Siglec-8 and detected with an anti-human AF647 secondary antibody. Binding specificity was assessed using untransfected 293 cells as a control. For the binding assays, Siglec-8 293 cells or untransformed 293 cells were seeded in a 96 well U-bottom plate with 50 k cells/well in FACS buffer and incubated at 4° C. with a titration of anti-Siglec8-VHH-NNT for 30 minutes. After washing, the plates were incubated with an A647-conjugated anti-human Fcγ specific secondary antibody diluted 1:10,000 in FACS buffer for 20 minutes at 4° C. The plates were washed, and binding was determined by flow cytometry quantitating anti-human A647 median fluorescent intensity. The maximum specific binding (Bmax) and affinity (Kd) for was determined from the flow cytometry binding data using a nonlinear fit model.
In general terms: A flow cytometer gives signals particle by particle.

In experiment [2] the target is T1, human Siglec-8 (full-length, on …). The experiment is described as follows: flow cytometry on 293 cells transiently transfected with full-length human Siglec-8; A647 anti-human Fc-gamma secondary; median fluorescence, nonlinear fit; table under the graph. The procedure: as §1
Experiment [3] has the same target. The experiment in a line: flow cytometry on 293 cells transiently transfected with full-length human Siglec-8; A647 anti-human Fc-gamma secondary; median fluorescence, nonlinear fit; table under the graph (Kd column without unit, concentration axis nM Ab). The method, then: as §1
The source holds these as a separate data set.

The target is the same in experiment [4]. The experiment is described as follows: flow cytometry, CHO cells transiently transfected with full-length human Siglec-8 (apparent affinity). The method, then: (§2) Binding of the anti-human Siglec-8 VHHs, B12, D1, E2, and G2, as a bivalent VHH-hIgG1-xELL-Fc (VHH of SEQ ID NO: 49, 55, 61, and 1, respectively linked to an Fe xELL via linker 2, these constructs are also designated cx8982, cx8983, cx8984, and cx10382, respectively) was determined by flow cytometry using CHO cells that had been transiently transfected with full-length human Siglec-8. Binding specificity was assessed using untransfected (UT) CHO cells as a control. For the binding assays, 50,000 Siglec-8 CHOs or UT CHOs were seeded in a 96-well plate and a titration of anti-Siglec8-VHH-xELL was added in FACS Buffer (PBS 1% BSA, 0.1% NaN3 pH 7.4) incubating for 30 minutes at 4° C. After washing, the plates were incubated with an A647-conjugated anti-human Fcγ specific secondary antibody (Jackson ImmunoResearch) diluted 1:2000 in FACS buffer for 30 minutes at 4° C. The plates were washed, and binding was determined by flow cytometry quantitating anti-human A647 mean fluorescent intensity using an Intellicyt iQue Plus.
(§3) The binding was specific to Siglec-8 as there was no detectable binding to untransfected CHO cells for any of the tested constructs.

Experiment [5] shares this target. The experiment in a line: flow cytometry on human eosinophils (CD16- CCR3+) from whole blood; anti-human AF647 secondary; MFI. An excerpt:
To determine if increasing the valency of Siglec-8 antibodies could enhance agonist activity, the parental llama B12, D1 and E2 VHH sequences were used to generate tetravalent (Tet-B12 (cx8467; SEQ ID NO:50 linked to an Fe), Tet-D1 (cx8469; SEQ ID NO:56 linked to an Fe), and Tet-E2 (cx8463; SEQ ID NO:62 linked to an Fc)) and hexavalent (Hex-B12 (cx8466; SEQ ID NO:51 linked to an Fe), Hex-D1 (cx8523; SEQ ID NO:57 linked to an Fe), and Hex-E2 (cx8522; SEQ ID NO:165 linked to an Fc)), Siglec8-VHH-Fc antibodies linked to a reduced effector function xELL human Fc region via linker 2. The bivalent (Bi-B12 (cx8982), Bi-D1 (cx8983) and Bi-E2 (cx8984)), tetravalent, and hexavalent Siglec8-VHH-Fc antibodies were assessed by flow cytometry for binding to eosinophils (CD16⁻ CCR3⁺). Cells were isolated from whole blood by centrifugation, washed twice with 2% FBS PBS, and resuspended in 1×RBC lysis buffer for 10 minutes at room temperature (RT), washed once in 2% FBS PBS and treated with a second RBC lysis step and washed twice with 2% FBS. Cells were seeded at 200 k/well and resuspended in Human FC block for 10 minutes at RT. Cells were spun down and then resuspended in titrated test articles starting at 200 nM 1:4 and incubated for 30 minutes at 4° C. before being washed twice and resuspended in secondary mixture (2*; anti-CCR3 FITC, anti-human AF647, PI, anti-CD16 BV605) and incubated for 30 minutes at 4° C., washed twice, and bound antibodies were detected via flow cytometry (Novocyte).
As shown in FIG. 2A-2C, bivalent, tetravalent, and hexavalent Siglec8-VHH-Fc antibodies B12 (FIG. 2A), D1 (FIG. 2B) and E2 (FIG. 2C) bound to eosinophils. The calculated affinity was similar between the bivalent, tetravalent, and hexavalent hzSiglec8-VHH-Fc antibodies. The observed Bmax was reduced with increasing valency as anticipated, due the fact that the Fc portion of the antibody was detected in this assay and the ratio of Fc regions to anti-Siglec-8 binding domains is inverse to valency. No binding was observed on other granulocyte populations (CD16⁺ CCR3⁻).

Experiment [6] has the same target. The experiment is described as follows: flow cytometry on CHO cells transiently transfected with full-length human Siglec-8; A647 anti-human Fc-gamma secondary; Mean RL1-H. The method, then:
as §2, §3

T1 sequence (Q9NYZ4 17-499): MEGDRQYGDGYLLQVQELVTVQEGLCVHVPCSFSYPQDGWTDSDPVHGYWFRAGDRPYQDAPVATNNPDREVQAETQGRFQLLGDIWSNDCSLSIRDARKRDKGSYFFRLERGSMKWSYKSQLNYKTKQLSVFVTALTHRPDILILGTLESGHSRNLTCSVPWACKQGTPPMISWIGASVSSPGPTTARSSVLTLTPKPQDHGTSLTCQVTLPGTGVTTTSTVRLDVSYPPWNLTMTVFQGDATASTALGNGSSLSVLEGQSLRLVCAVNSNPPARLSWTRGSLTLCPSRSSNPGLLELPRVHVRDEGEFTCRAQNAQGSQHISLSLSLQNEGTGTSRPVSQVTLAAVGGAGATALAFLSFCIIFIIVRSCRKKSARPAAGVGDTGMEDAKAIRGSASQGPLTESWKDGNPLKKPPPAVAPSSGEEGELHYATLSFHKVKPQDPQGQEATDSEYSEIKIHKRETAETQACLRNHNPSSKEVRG

B1: Siglec8 hzG2v17, monomeric VHH-hIgG1 fusion (Fc NNT) (Fc fusion)
chain: EVQLLESGGGEVQPGGSLRLSCAASGSISIFSIYVVAWYRQAPGKEREWVAFIQRGGTANYAESAKGRFTISRDNAKNTVYLQMSSLRAEDTAVYYCNYINSDNEIGGPWGQGTLVTVKP
notes: Monomeric format; not shown: non-dimerizing human IgG1 Fc variant lacking a hinge (Fc NNT)
On to B1, for which the Kd in experiment [1] was 0.145 nM. In experiment [2], the Bmax is 1.17e+06 Median (anti-human A647).

B2: Siglec8 hzG2v29, monomeric VHH-hIgG1 fusion (Fc NNT) (Fc fusion)
chain: B1 chain with Q13R, I33M, E46Q
notes: as for B1
B2: the Kd in experiment [3] was 0.111 nM.

B3: Siglec8 hzG2v30, monomeric VHH-hIgG1 fusion (Fc NNT) (Fc fusion)
chain: B1 chain with E11L, Q13R, P14T, I33M, E46Q
notes: as for B1
Consider B3, for which the Kd in experiment [3] amounted to 0.124 nM.

B4: Siglec8 hzG2v18, monomeric VHH-hIgG1 fusion (Fc NNT) (Fc fusion)
chain: B1 chain with I33K
notes: as for B1
With B4, in experiment [1], the Kd turned out to be 0.263 nM. In addition, the Bmax in experiment [2] is 1.05e+06 Median (anti-human A647).

B5: Siglec8 hzG2v28, monomeric VHH-hIgG1 fusion (Fc NNT) (Fc fusion)
chain: B1 chain with P14T, I33M, E46Q
notes: as for B1
B5 yielded a Kd in experiment [3] of 0.0966 nM.

B6: hzG2v19 (Fc fusion)
VHH: B1 chain with I33S, V35A
notes: also called Siglec8 hzG2v19; monomeric VHH-hIgG1 fusion (Fc NNT); not shown: The non-dimerizing, hinge-less human IgG1 Fc variant (Fc NNT) and any linker to it
B6 gave a Kd in experiment [1] of 41.9 nM. Also, in experiment [2], the Bmax is 1.24e+06 Median (anti-human A647).

B7: Siglec8 hzG2v25, monomeric VHH-hIgG1 fusion (Fc NNT) (Fc fusion)
chain: B1 chain with E11L, P14T, I33M, E46Q
notes: as for B1
For the molecule B7, the Kd in experiment [1] was found to be 0.0912 nM.

B8: hzG2v21 (Fc fusion)
VHH: B1 chain with I33S, V35A, V36M, A37S
notes: also called Siglec8 hzG2v21; monomeric VHH-hIgG1 fusion (Fc NNT); not shown: The non-dimerizing, hinge-less human IgG1 Fc variant (Fc NNT) and any linker to it
B8 came in with a Kd in experiment [1] of 256 nM. Also, in experiment [2], the Bmax is 1.1e+06 Median (anti-human A647).

B9: Siglec8 hzG2v26, monomeric VHH-hIgG1 fusion (Fc NNT) (Fc fusion)
chain: B1 chain with E11L, Q13R, I33M, E46Q
notes: as for B1
Turning to B9, the Kd in experiment [1] turned out to be 0.151 nM.

B10: anti-Siglec8-B12-xELL, bivalent VHH-hIgG1-xELL-Fc (Fc fusion)
chain: QVQVVESGGGLVQPGGSLRLSCAASGSTSLLNAMAWYRQAPGKERELVAAISSGGGTYYADSVKGRFTISTNNAKNTLYLQMNSLKPEDTAMYYCAPGPNYSDYEEINWGQGTQVTVKPGGGGDKTHTCPPCPAPGGPSVFLFPPKPKDTLMISRTPEVTCVVVDVSHEDPEVKFNWYVDGVEVHNAKTKPREEQYNSTYRVVSVLTVLHQDWLNGKEYKCKVSNKALPAPIEKTISKAKGQPREPQVYTLPPSRDELTKNQVSLTCLVKGFYPSDIAVEWESNGQPENNYKTTPPVLDSDGSFFLYSKLTVDKSRWQQGNVFSCSVMHEALHNHYTQKSLSLSPGK
notes: Homodimer through the Fc; also called cx8982; Bi-B12
Consider B10, for which the Kd in experiment [4] came to 0.367 nM. The entries for the “EC50 (read off the curve)” value in experiment [5] and in experiment [6] were approximately 0.1 nM and approximately 0.4 nM, respectively.

B11: Hex-E2, hexavalent Siglec8-VHH-Fc (xELL) (Fc fusion)
chain: QVQLVESGGGLVQPGGSLRLSCATSGIIFTSNVINWYRQAPGKQREFVAFITSITSGQSTMYADAVKGRFTVSRDNDKNIGYLQMTSLQPEDTARYVCNVGAYWGQGTQVTVKPGGSGGSQVQLVESGGGLVQPGGSLRLSCATSGIIFTSNVINWYRQAPGKQREFVAFITSITSGQSTMYADAVKGRFTVSRDNDKNIGYLQMTSLQPEDTARYVCNVGAYWGQGTQVTVKPGGSGGSQVQLVESGGGLVQPGGSLRLSCATSGIIFTSNVINWYRQAPGKQREFVAFITSITSGQSTMYADAVKGRFTVSRDNDKNIGYLQMTSLQPEDTARYVCNVGAYWGQGTQVTVKPGGGGDKTHTCPPCPAPGGPSVFLFPPKPKDTLMISRTPEVTCVVVDVSHEDPEVKFNWYVDGVEVHNAKTKPREEQYNSTYRVVSVLTVLHQDWLNGKEYKCKVSNKALPAPIEKTISKAKGQPREPQVYTLPPSRDELTKNQVSLTCLVKGFYPSDIAVEWESNGQPENNYKTTPPVLDSDGSFFLYSKLTVDKSRWQQGNVFSCSVMHEALHNHYTQKSLSLSPGK
notes: Homodimer through the Fc; also called cx8522
For B11, the binding result in experiment [5] was “binds”.

B12: anti-Siglec8-G2-xELL, bivalent VHH-hIgG1-xELL-Fc (Fc fusion)
chain: QVTLKESGGGLVRTGGSLRLSCAASGSISIFSMYVVAWYRQAPGKQREWVAFIQRGGTANYADSAKGRFTISRDNAKNTVYLQMASLKPDDTAVYYCNYINSDNEIGGPWGQGTQVTVKPGGGGDKTHTCPPCPAPGGPSVFLFPPKPKDTLMISRTPEVTCVVVDVSHEDPEVKFNWYVDGVEVHNAKTKPREEQYNSTYRVVSVLTVLHQDWLNGKEYKCKVSNKALPAPIEKTISKAKGQPREPQVYTLPPSRDELTKNQVSLTCLVKGFYPSDIAVEWESNGQPENNYKTTPPVLDSDGSFFLYSKLTVDKSRWQQGNVFSCSVMHEALHNHYTQKSLSLSPGK
notes: Homodimer through the Fc; also called cx10382
B12: the Kd in experiment [4] was found to be 0.268 nM. In addition, the EC50 (read off the curve) (as a rule, the midpoint of the concentration-response curve) in experiment [6] was approximately 0.3 nM.

B13: Tet-E2, tetravalent Siglec8-VHH-Fc (xELL) (Fc fusion)
chain: QVQLVESGGGLVQPGGSLRLSCATSGIIFTSNVINWYRQAPGKQREFVAFITSITSGQSTMYADAVKGRFTVSRDNDKNIGYLQMTSLQPEDTARYVCNVGAYWGQGTQVTVKPGGSGGSQVQLVESGGGLVQPGGSLRLSCATSGIIFTSNVINWYRQAPGKQREFVAFITSITSGQSTMYADAVKGRFTVSRDNDKNIGYLQMTSLQPEDTARYVCNVGAYWGQGTQVTVKPGGGGDKTHTCPPCPAPGGPSVFLFPPKPKDTLMISRTPEVTCVVVDVSHEDPEVKFNWYVDGVEVHNAKTKPREEQYNSTYRVVSVLTVLHQDWLNGKEYKCKVSNKALPAPIEKTISKAKGQPREPQVYTLPPSRDELTKNQVSLTCLVKGFYPSDIAVEWESNGQPENNYKTTPPVLDSDGSFFLYSKLTVDKSRWQQGNVFSCSVMHEALHNHYTQKSLSLSPGK
notes: Homodimer through the Fc; also called cx8463
With B13, the binding result in experiment [5] was “binds”.

Source of the values: patent US20250042997A1 (PHYLAXIS BIOSCIENCE, published 2025).
